The experiment deals with HRV-A and B strains tested. The experiment in a line: binding to HRV; format not stated in this example.

B1: TCN-711 (6893_E11) (antibody, human IgG1, lambda, V domains shown)
VH: QVQLHQWGTGVLKPSGTLSLTCGVYGGSLTDFYWTWIRQSPARGLEWLGEIDRDGATYYNPSLKSRITISIDTSKKQFSLNLRSVTAADRAVYYCARRPMLRGVWGNFRSNWFDPWGQGTQVTVSS
VL: QSVLTQPPSVSAAPGQKVSISCSGSSSNIGYSYVSWYQQVPGSAPKLLIYENNKRPSGIPDRFSASKSGTSATLDITGLQTGDEADYYCGTWDTRLFGGVFGGGTKLTVLG
Usually EC50 stands for the concentration at which the effect is half-maximal. Lower therefore signals higher potency in that assay. B1 yielded an EC50 of 0.007 to 0.07 nM.

For the origin of these results see patent publication US20140328797A1.
